This is an account of results in the RNAGym collection of RNA variant scans (doi:10.7554/elife.90254).

Sequences and labels used below:
B1: OR4K15 (parent)
chain: GUUAACGGUCAUAGGCCAUGGAAACUAGGAGCACCAUUUCGCUGCCAGUGAAGAAAUGAACAAAGAAAAUCUGGGCCAGGCAGGCAUCAAAAGAAAUAGUCUUGCGCUCAACCAGAAAGUCUGUAAUCAUUUUAAGGGUA

This series covers variants of B1. The experiment in a line: self-cleavage, relative activity (ratio to wild type); higher = more cleavage; in vitro, sequencing; the parent is a self-cleaving ribozyme.
Take A18G A118G: the self-cleavage amounted to 1.34.

As for U12G U100C, the self-cleavage was determined as 1.76. Under A62C U120C stands 0.93; under A23G A90G, 0.8. Under G106C U127C stands 0; under A91U A129G, 1.13; under A60G A90G, 0.4. A23G G119A: the self-cleavage amounted to 1.38. Under A33G U122A stands 0.6; under A33G A89U, 1.27. The same measure for G21A U70C: 1.39; for C25U A63G: 0.37; for A89U: 1.65. Under A13G G80A stands 0.43; under G83A A86G, 2.15; under A23G A110G, 0.11. As to C46U A89G, the self-cleavage was 2.15. The same measure for U3C A111G: 0.03. The same measure for A36G A68G: 2.06. Under A5G U132C stands 0.89; under A51U G137A, 1.43; under U38C C45U, 1.23. For the variant U37C U72C, the self-cleavage was found to be 0.26. As to A24U U26A, the self-cleavage was 1.57. Under C17U A116G stands 0.47; under U37C A59C, 1.08. The same measure for A55G A64G: 0.88; for G8A U49C: 2.37. With A63G A129U, the self-cleavage turned out to be 0.61. Under A63G A129G stands 0.9. Under A30U A110G stands 0.1; under G74C A110U, 0.14; under G50C, 1.54. Under A22G U132G stands 1.75; under U72A U100G, 0.19.

G15C U39C: the self-cleavage is 1.26.

Regarding A23G A114G, the self-cleavage is 0.54. On to U70C A126U, for which the self-cleavage is 0.71.

Take U122A U133C: the self-cleavage turned out to be 2.07. Consider C105A U108C, for which the self-cleavage amounted to 0.01. The same measure for A5U A60G: 0.99; for A5U A60C: 1.78. Under U26C A110C stands 0.25. Consider U122C A129U, for which the self-cleavage was 0.49. Under U102C U122A stands 1.51. The same measure for U3A U102C: 1.99; for A47G U87C: 0.42. Under G14U A126G stands 1.1. Regarding G79C A116G, the self-cleavage was 0.03. For U102C U132A, the self-cleavage was determined as 2.37.

As to C25U U57C, the self-cleavage was 1.42.

On to A22U A117G, for which the self-cleavage was 1.06. Under G31A A78G stands 0.27. The same measure for A22G A36U: 0.87; for A91G U108C: 0.02. The same measure for A47U A62U: 1.36. For A116U U131C, the self-cleavage was found to be 0.11. Under G41A U127C stands 1.22.

Take G8A A96G: the self-cleavage was found to be 1.97. Turning to U43C A89C, the self-cleavage was 1.36. For U131A G137U, the self-cleavage amounted to 0.48. Under U2A A56G stands 0.89; under A27G A67G, 1.25.

For the variant A62U A63U, the self-cleavage turned out to be 1.75. The same measure for A4G A110G: 0.4.

Take U100C A111U: the self-cleavage came to 0.18.

As to A52U A129G, the self-cleavage came to 0.81.

Take A60G A140U: the self-cleavage was 1.06. The same measure for A59G G73A: 0.17. Under A116U A118G stands 0.07. Under U120C U127C stands 0.43; under U19A A86G, 2.13.

In the case of A62G A78C, the self-cleavage amounted to 0.37. The same measure for U38C A98U: 1.89; for U2C A134G: 1.59.

For A62U A67C, the self-cleavage was 1.64.

On to A82G G138A, for which the self-cleavage stood at 0.49. The same measure for A23U A60G: 1.24; for A62U A94G: 1.69. The same measure for A86U A129U: 1.13. The same measure for A27U A36G: 1.64; for A82U U97C: 0.06; for C46U A129G: 1.52. Regarding A78U A117U, the self-cleavage came to 0.3. On to A62U G83A, for which the self-cleavage turned out to be 1.98. The same measure for C16A U124A: 0.4. The same measure for U108C A126C: 0.01; for U12G: 1.33; for A95C A140G: 0.98. As for A62G C77U, the self-cleavage was 2.24.

Take U9C A111G: the self-cleavage is 0.02. Regarding U37C U133C, the self-cleavage is 1.16.

In the case of C25A A36G, the self-cleavage was determined as 1.03. The same measure for A59G A96U: 0.71. Under C25U G136A stands 1.84. For A13G A92G, the self-cleavage is 1.22. Under A114G G138C stands 0.31.

Turning to C6A A110G, the self-cleavage came out at 0.08. As for G21A A51G, the self-cleavage amounted to 1.66. Under A111G A117C stands 0; under A27G A60G, 1.09.

As for A59U A82U, the self-cleavage is 0.15.

U26C U130C: the self-cleavage worked out at 0.3.

Turning to U3C A68C, the self-cleavage worked out at 1.6.

Consider U49G A60G, for which the self-cleavage is 0.64. The same measure for C6A A111G: 0.08; for A11G U103C: 0.95; for A78U U131C: 0.17. Under U37C A92U stands 1.61; under C34A, 1.12. Under U12C A91G stands 0.8; under A36C G104A, 0.03; under A11G A78U, 0.26. As to A90U A110G, the self-cleavage turned out to be 0.08.

A24G A27C: the self-cleavage came out at 0.55. Turning to U39A U87C, the self-cleavage came out at 1.53. Under A4G A89G stands 1.34. Under A30U U72A stands 0.27. Under U12C A62G stands 1.18. Regarding A22U U57C, the self-cleavage was found to be 0.84. Under U9C A78C stands 0.38.

Consider A62G A117C, for which the self-cleavage came out at 0.69. Under A36C A64G stands 2.21. Consider A51G U133G, for which the self-cleavage was determined as 1.24. The same measure for A64G A111U: 0.1; for U3A A47C: 1.17.

As to A22U A67G, the self-cleavage was 1.87. The same measure for U102C C107G: 0.01; for U19A A90G: 0.53; for A67U A125G: 1.2.

Turning to U2A A116U, the self-cleavage worked out at 0.18.

As for U39C U122G, the self-cleavage amounted to 1.81. Under G15C A91U stands 0.88; under A47U U108C, 0.01. Under G28U U100C stands 2.35.

Regarding U3C U132A, the self-cleavage came out at 1.58. The same measure for U9C G15A: 1.47; for G20C: 1.88; for U39G U132C: 0.94. Under A33U G48A stands 1.42. Under A47G U139C stands 1.45.

In the case of A30G A52G, the self-cleavage stood at 1.13. The same measure for U43C G79U: 0.12; for U103A A116U: 0.2; for U2C U132A: 1.23.

As to A63G U72G, the self-cleavage is 0.29.

On to A95G U122C, for which the self-cleavage turned out to be 1.2. On to G53U U122C, for which the self-cleavage worked out at 2.

Take A78U G84C: the self-cleavage came out at 0.11. The same measure for A33U A126U: 1.67; for U39C G138A: 1.78; for C32U A111G: 0.01.

As for A92G C113U, the self-cleavage was 0.14. The same measure for U97C U130C: 0.85; for U124A U127C: 0.65. The same measure for U103C A140G: 1.38; for C77A A89G: 0.61; for G7A U131C: 1.36. Under A5U A86G stands 0.92. Turning to A68G C101A, the self-cleavage turned out to be 0.19. The same measure for C40U A59G: 2.06. The same measure for U12C U38A: 0.89; for A94U U102C: 1.36; for U102C A118U: 1.08.

In the case of U72A U87C, the self-cleavage was 0.19. Take U108G: the self-cleavage worked out at 0.02. The same measure for U38C G74A: 0.33.
